Source: the supplement of paper PMC10567573

B1: VTI1B (parent)
chain: NKLLLSIIILLELAILGGLVYYKF

Variants of: B1
Experiment: protein stability index of a GFP-peptide fusion (GPS, HEK-293T) (PSI 1-6); higher = more stable
Settings: c terminus: a fixed tail appended
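Also: lentivirally expressed fusions sorted by FACS into six bins by GFP to DsRed ratio, PSI derived from sequencing read proportions per bin multiplied by bin number.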

Protein stability index of substitutions, site by site:
L16: W 2.31 | T 2.9 | V 2.62 | I 1.99 | G 3.79 | R 2.77 | D 2.8 | N 2.9 | P 2.27 | K 3.6 | C 2.13 | M 3.6 | F 2.62 | H 4.31 | S 2.23 | Q 3.17 | A 4.1
L10: N 2.09 | M 2.86 | P 3.62 | K 3.36 | V 3.92 | G 2.46 | H 3.04 | E 3.16 | T 1.93 | R 2.63 | S 4.51 | F 2.6 | W 3.4 | Y 2.8 | Q 1.98 | C 3.11 | I 2.55 | D 2.71 | A 2.44
L19: A 3.32 | W 2.91 | T 1.82 | P 3.45 | D 3.31 | N 3.02 | C 2.05 | S 3.48 | I 3.35 | M 2.76 | Q 3.21 | Y 2.48 | R 2.95 | G 3.14 | K 2.67 | E 4.42 | H 1.56 | F 2.77
E12: W 1.82 | L 2.33 | M 2.4 | D 2.99 | R 2.18 | A 2.13 | Y 2.01 | G 1.55 | P 2.64 | H 2.64 | K 2.66 | N 1.44 | I 2.73 | Q 3.45 | V 2.85 | F 2.17 | S 2.68 | T 2.87 | C 2.57
G17: K 3.17 | Y 2.5 | D 1.51 | T 3.94 | Q 3.08 | L 3.46 | P 2.58 | C 3.4 | V 2.85 | I 2.35 | N 2.64 | R 2.35 | H 2.42 | W 3.38 | F 3.71 | S 3.45 | E 3.26
L13: V 1.79 | N 2.58 | W 3.72 | D 2.7 | F 3.1 | E 2.44 | H 3.39 | G 3.93 | A 2.4 | C 1.85 | M 3.13 | T 3.42 | I 3.27 | R 3.24 | P 3.15 | S 3.71 | Y 2.83 | Q 2.92
A14: H 3.82 | L 3.61 | N 2.81 | K 2.48 | E 3.15 | I 1.84 | Q 3.3 | S 2.35 | W 3.4 | Y 3.19 | R 3.34 | C 2.98 | M 2.43 | G 3.17 | F 3.19 | P 2.64
K23: S 2.05 | V 3.21 | Y 2.52 | Q 3.58 | P 3.73 | A 2.52 | D 2.65 | H 1.85 | G 2.08 | T 2.41 | E 2.78 | W 2.23 | C 2.27 | N 2.72 | M 4.1 | I 2.95 | F 2.1 | R 2.49
F24: P 2.79 | R 3.27 | H 2.07 | K 1.52 | E 3.85 | W 1.83 | A 2.47 | V 2.5 | L 2.53 | C 2.01 | S 2.46 | Q 2.77 | Y 1.63 | T 3.12 | G 2.52 | N 1.86 | D 3.03
G18: F 1.55 | N 2.96 | Y 1.86 | W 2.52 | S 3.16 | A 2.61 | P 2.88 | E 2.07
